# Measurements published in US20060057696A1, “Sugar chain synthases” (priority 2002, published 2006).
# T1: PA-hST8Sia VI (human ST8Sia VI) (Homo sapiens, UniProt P61647, L267F)
# T1 construct: amino acids 68-398 in the case of human ST8Sia VI; signal peptide of mouse immunoglobulin IgM (N); made in house; host or cells: COS-7 cells, transient expression of pcDSA-hST8Sia VI; protein recovered from medium on IgG-Sepharose
# T1 sequence (P61647 68-398 L267F): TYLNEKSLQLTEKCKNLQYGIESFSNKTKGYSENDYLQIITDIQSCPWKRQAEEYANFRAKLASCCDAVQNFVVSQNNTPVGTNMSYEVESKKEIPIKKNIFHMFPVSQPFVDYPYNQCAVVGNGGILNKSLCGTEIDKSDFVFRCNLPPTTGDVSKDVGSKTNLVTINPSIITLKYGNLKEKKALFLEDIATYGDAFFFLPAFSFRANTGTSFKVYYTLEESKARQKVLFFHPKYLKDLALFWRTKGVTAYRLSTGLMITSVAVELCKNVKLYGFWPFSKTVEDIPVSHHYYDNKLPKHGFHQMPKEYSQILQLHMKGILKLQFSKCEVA
# T2: mouse ST8Sia III (Mus musculus, UniProt Q64689)
# T2 sequence (Q64689 1-380): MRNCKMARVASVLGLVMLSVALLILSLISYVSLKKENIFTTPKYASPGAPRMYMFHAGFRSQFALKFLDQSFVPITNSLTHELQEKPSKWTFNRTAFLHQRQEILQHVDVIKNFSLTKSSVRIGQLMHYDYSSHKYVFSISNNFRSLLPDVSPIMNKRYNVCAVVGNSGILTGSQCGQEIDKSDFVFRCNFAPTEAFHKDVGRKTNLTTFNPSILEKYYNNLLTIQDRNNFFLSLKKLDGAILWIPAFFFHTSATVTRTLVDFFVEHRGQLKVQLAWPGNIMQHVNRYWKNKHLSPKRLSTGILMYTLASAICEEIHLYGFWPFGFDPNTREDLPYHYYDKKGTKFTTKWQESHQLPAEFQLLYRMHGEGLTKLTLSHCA
# T3: PA-mST8Sia VI (Mus musculus, UniProt Q8K4T1)
# T3 construct: amino acids 26-398 in the case of mouse ST8Sia VI; signal peptide of mouse immunoglobulin IgM (N); made in house; host or cells: COS-7 cells, transient expression of pcDSA-mST8Sia VI; protein recovered from medium on IgG-Sepharose
# T3 sequence (Q8K4T1 26-398): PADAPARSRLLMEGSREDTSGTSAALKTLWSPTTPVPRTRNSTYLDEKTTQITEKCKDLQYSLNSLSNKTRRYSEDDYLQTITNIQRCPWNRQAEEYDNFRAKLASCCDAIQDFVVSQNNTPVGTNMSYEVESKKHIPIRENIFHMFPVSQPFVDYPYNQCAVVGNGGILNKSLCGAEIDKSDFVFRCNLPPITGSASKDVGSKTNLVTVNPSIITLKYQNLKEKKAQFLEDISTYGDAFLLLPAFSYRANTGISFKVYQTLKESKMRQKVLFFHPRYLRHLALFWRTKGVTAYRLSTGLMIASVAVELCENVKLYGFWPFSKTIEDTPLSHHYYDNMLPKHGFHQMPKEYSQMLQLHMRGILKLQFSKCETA
# How the values were obtained:
# Assay type in all cases: biochemical
# [1] = target: T1, PA-hST8Sia VI (human ST8Sia VI); assay: Sialyltransferase activity of PA-hST8Sia VI toward acceptor substrates; conditions: incorporation with Fetuin taken as 100, substrate 0.5 mg/ml glycolipids, 1 mg/ml glycoproteins, monosaccharides and oligosaccharides
# Description: Using each expression vector and lipofectamine (Invitrogen), transient expression was carried out in COS-7 cells (Kojima, N. et al. (1995) FEBS Lett. 360, 1-4). The proteins of the present invention secreted from the cells into which each expression vector had been introduced were named as PA-mST8Sia VI (mouse) and PA-hST8Sia VI (human). PA-mST8Sia VI and PA-hST8Sia VI were adsorbed to IgG-Sepharose (Amersham Pharmacia Biotech), and were then recovered from medium. Sialyltransferase activity was measured as follows according to the method of Lee et al. (Lee, Y.-C. et al. (1999) J. Biol. Chem. 274, 11958-11967). A reaction solution (10 μl) containing 50 mM MES buffer (pH 6.0), 1 mM MgCl2, 1 mM CaCl2, 0.5% Triton CF-54, 100 μM CMP-[^14C]-NeuAc, a glycoconjugate (which was added at 0.5 mg/ml in the case of glycolipids, and at 1 mg/ml in the case of glycoproteins or oligosaccharides), and a PA-mST8Sia VI or PA-hST8Sia VI suspension, was incubated at 37° C. for 3 to 20 hours. Thereafter, in the case of glycolipids, the reaction product was purified with a C-18 column (Sep-Pak Vac 100 mg; Waters) and the purified product was used as a sample, and in the case of oligosaccharides or glycoproteins, the reaction product was directly used as a sample. Thus, the obtained samples were subjected to analysis. In the case of oligosaccharides or glycolipids, the sample was spotted on a silica gel 60 HPTLC plate (Merck), and was then developed with a developing solvent consisting of ethanol:pyridine:n-butanol:water:acetic acid=100:10:10:30:3 (for oligosaccharides), a developing solvent consisting of 1-propanol:ammonia water:water=6:1:2.5 (for oligosaccharides), or a developing solvent consisting of chloroform:methanol: 0.02% CaCl2=55:45:10 (for glycolipids). In the case of glycoproteins, analysis was carried out by SDS-polyacrylamide gel electrophoresis. The obtained radioactivities were visualized with a BAS2000 radio image analyzer (Fuji Film) and then quantified.
# mouse ST8Sia III = target: T2, mouse ST8Sia III; assay: N-glycanase treatment of Fetuin sialylated with [14C]-NeuAc by mouse ST8Sia III
# Description: (§1) In FIG. 4, Fetuin was [^14C]-NeuAc-incorporated by ST8Sia III or ST8Sia VI and then treated with N-glycanase. The [^14C]-NeuAc-incorporated Fetuin was treated with N-glycanase, and the treated product was analyzed by SDS-PAGE. Thereafter, it was visualized with a BAS2000 radio image analyzer.
# (§2) It was found by an N-glycanase treatment that when Fetuin was used as a substrate, the majority of sialic acid, which was newly introduced by PA-mST8Sia VI, was incorporated into O-glycans (FIG. 4). That is, when Fetuin was sialylated by PA-mST8Sia VI with [^14C]-NeuAc, and the sialylated product was then treated with N-glycanase, which releases N-glycans from a peptide portion. The majority (82.7%) of radioactivity was still kept in the Fetuin after this treatment. […] On the other hand, the same experiment was carried out using mouse ST8Sia III, which used N-glycans of Fetuin as substrates.
# PA-mST8Sia VI = target: T3, PA-mST8Sia VI; assay: N-glycanase treatment of Fetuin sialylated with [14C]-NeuAc by PA-mST8Sia VI; conditions: sialylated by PA-mST8Sia VI with [14C]-NeuAc; shows incorporation into O-glycans
# Description: as §1, §2
Molecule,Relative rate (%) Human ST8Sia VI [1],radioactivity in Fetuin after N-glycanase treatment (in words) (mouse ST8Sia III),radioactivity still kept in the Fetuin after N-glycanase treatment (PA-mST8Sia VI)
Asialo- α1-Acid glycoprotein: desialylated α1-acid glycoprotein prepared at 80° C. for 1 hour in 0.02 N HCl,0%,–,–
Asialofetuin: asialo glycoprotein acceptor substrate purchased from Sigma,0%,–,–
"Fetuin: glycoprotein acceptor substrate containing both O-glycans and N-glycans, purchased from Sigma",100%,completely disappeared,82.7%
"NeuAcα2,3Galβ1,4Glcβ1-Cer [GM3]",1.6%,–,–
α1-Acid glycoprotein: glycoprotein acceptor substrate purchased from Sigma,0%,–,–
"Ovomucoid: glycoprotein acceptor substrate which contains only N-glycans (protein, UniProt P01005 25-210, looked up) Ovomucoid: AEVDCSRFPNATDKEGKDVLVCNKDLRPICGTDGVTYTNDCLLCAYSIEFGTNISKEHDGECKETVPMNCSSYANTTSEDGKVMVLCNRAFNPVCGTDGVTYDNECLLCAHKVEQGASVDKRHDGGCRKELAAVSVDCSEYPKPDCTAEDRPLCGSDNKTYGNKCNFCNAVVESNGTLTLSHFGKC",12.3%,–,–
"Asialoovomucoid: desialylated ovomucoid prepared at 80° C. for 1 hour in 0.02 N HCl (protein, UniProt P01005 25-210, looked up, desialylated, desialylated ovomucoid prepared at 80° C. for 1 hour in 0.02 N HCl) Ovomucoid: AEVDCSRFPNATDKEGKDVLVCNKDLRPICGTDGVTYTNDCLLCAYSIEFGTNISKEHDGECKETVPMNCSSYANTTSEDGKVMVLCNRAFNPVCGTDGVTYDNECLLCAHKVEQGASVDKRHDGGCRKELAAVSVDCSEYPKPDCTAEDRPLCGSDNKTYGNKCNFCNAVVESNGTLTLSHFGKC",0%,–,–
